How the values were obtained:
[1] = molecular target: T1, rat LINGO-1 expressed on CHO-K1 cells (CHO-K1-rLINGO-1) (rat, UniProt A0A8I5ZPI2 34-614); test: apparent KD, FACS saturation binding on CHO-K1-rLINGO-1 cells, Fab format
T1 construct: range 34-614; not shown: 2 amino acid residue linker
T1 sequence: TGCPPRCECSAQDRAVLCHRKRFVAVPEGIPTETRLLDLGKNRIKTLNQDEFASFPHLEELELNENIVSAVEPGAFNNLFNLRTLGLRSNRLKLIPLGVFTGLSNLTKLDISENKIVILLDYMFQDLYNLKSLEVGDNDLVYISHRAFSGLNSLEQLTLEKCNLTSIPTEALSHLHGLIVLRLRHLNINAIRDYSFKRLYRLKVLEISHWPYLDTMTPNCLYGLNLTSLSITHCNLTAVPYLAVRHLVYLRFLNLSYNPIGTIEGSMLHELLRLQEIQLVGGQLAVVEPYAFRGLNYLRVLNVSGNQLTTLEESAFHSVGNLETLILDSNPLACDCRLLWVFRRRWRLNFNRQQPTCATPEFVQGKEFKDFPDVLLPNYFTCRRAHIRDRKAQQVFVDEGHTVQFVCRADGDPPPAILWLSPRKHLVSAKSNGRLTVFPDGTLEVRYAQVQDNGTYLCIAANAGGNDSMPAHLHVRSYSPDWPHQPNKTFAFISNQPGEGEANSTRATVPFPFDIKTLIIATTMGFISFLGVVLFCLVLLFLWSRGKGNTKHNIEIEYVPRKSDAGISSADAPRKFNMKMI
Description: Cell based affinity of anti-LINGO-1 specific antibodies is determined by FACS saturation binding experiments. […] Otherwise the staining procedure is done identical to the FACS staining procedure described above.
In detail, CHO-K1-hLINGO-1, CHO-K1-cmLINGO-1 or CHO-K1-rLINGO-1 are detached from culture flasks by versene, washed with FACS buffer and resuspended in FACS buffer. Purified anti-LINGO-1 Fabs are serially diluted in FACS buffer and spread into round bottom 96-well microtiter plates (NUNC™, Wiesbaden, Germany). For each concentration, duplicate wells are incubated with 1.25×10⁴ cells for 30-60 min on ice in a total volume of 100 μl.

[2] = molecular target: T2, human LINGO-2 expressed on CHO-K1 cells (CHO-K1-hLINGO-2) (human, UniProt Q7L985 26-606); test: apparent KD, FACS saturation binding on CHO-K1-hLINGO-2 cells, Fab format
T2 construct: range 26-606; not shown: 2 amino acid residue linker
T2 sequence (looked up): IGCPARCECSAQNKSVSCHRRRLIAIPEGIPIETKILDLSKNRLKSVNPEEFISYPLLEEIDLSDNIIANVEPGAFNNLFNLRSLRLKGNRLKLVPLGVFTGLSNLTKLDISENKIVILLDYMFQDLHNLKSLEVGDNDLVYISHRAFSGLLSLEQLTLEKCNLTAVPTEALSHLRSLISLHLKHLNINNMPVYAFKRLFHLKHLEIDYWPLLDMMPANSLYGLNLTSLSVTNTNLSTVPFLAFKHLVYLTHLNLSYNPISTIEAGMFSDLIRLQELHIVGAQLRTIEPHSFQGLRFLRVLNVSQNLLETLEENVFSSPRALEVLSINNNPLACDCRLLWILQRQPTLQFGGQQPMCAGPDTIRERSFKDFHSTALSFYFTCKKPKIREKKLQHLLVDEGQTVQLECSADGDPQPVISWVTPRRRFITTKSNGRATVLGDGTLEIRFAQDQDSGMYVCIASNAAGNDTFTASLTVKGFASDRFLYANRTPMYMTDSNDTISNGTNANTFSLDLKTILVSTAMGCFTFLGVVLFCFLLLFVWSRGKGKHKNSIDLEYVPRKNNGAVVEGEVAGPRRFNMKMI

Kd [1]: 0.26 nM
Kd [2]: 1.21 nM
B1: anti-LINGO-1 Fab 4785 (Fab, V domains shown)
VH: QVQLQQSGPGLVKPSQTLSLTCAISGDSVSDNSAAWSWIRQSPGRGLEWLGLIYLRSKWDNDYAVSVKSRITINPDTSKNQFSLQLNSVTPEDTAVYYCARTGRADEFDVWGQGTLVTVSS
VL: DIVLTQPPSVSGAPGQRVTISCSGSSSNIGNNYVSWYQQLPGTAPKLLISRNSKRPSGVPDRFSGSKSGTSASLAITGLQSEDEADYYCSTYDTFSIVFGGGTKLTVLG

Reference: US20140255415A1 (Novartis, published 2014)
